These are literature values, as cited in patent EP4748396A1, “PHARMACEUTICAL COMPOSITION CONTAINING ANTI-NECTIN4 ANTIBODY-DRUG CONJUGATE AND ANTI-PD-1 ANTIBODY AND USE THEREOF” (priority 2023, dated 2025).

For this data set the following is noted: 2019 FDA announcement.

With Enfortumab Vedotin [PADCEV], the skin adverse reactions entry was “may cause severe skin adverse reactions, including Stevens-Johnson syndrome (SJS) and toxic epidermal necrolysis (TEN)”.
